The chains are these.
B1: Flag and GFP-fused PKN3 WT (mouse) [mouse] / p130Cas, endogenous in MDA-MB-231 cells [human (endogenous in MDA-MB-231)] (parent complex)
chain 1: MEHRKPGTGQRAPKDEKEMVRRAIQKELKIKEGMENMRRVATDRRHLGHVQQLLRASNRRLEQLHGELRELHAQVLLPASAEPVTSEPQPRAEQSRARLSEALHRQLQVELKVKQGAENMIHTCASGTPKERKLLAAAQQMLKDSQLKVALLRMKISSLESSGSPEPGPDLLAEELQHRLRVEAAVAAGAKNVVKLLGGQRMQDRKALAEAQAQLQESSQKLDLLRLALELLLERLPPTHSLRSRVTQELWMAMLGNPQPLGTLVKPIALTGTLQVRLLGCKDLLVAVPGRSPMAVLAGSPSESWLRTRSRQQRGGGELASEVLAVLKVDNRVVGQTGWGLVAEKSWDQSFIISLDRARELEIGVHWRDWRQLCGVAFLKLEDFLDNACHQLSLSLVPQGRLFAQVTFCEPVIERRPRLQRQRCIFSKRRGRDFMRASQMNLSMAAWGRLVMSLLPPCSSPNTASPPKGRPSTAVCGTPSAASPSNFLPMKTLSKEDTKPPPKPPRLYLQEPAPGTPCTKRPHMDPRPAVVPALAALSTRKPPRLQDFRCLAVLGRGHFGKVLLVQYKGTGKYYAIKALKKQEVLGRDEIDSLYCEKRILETVGRTGHPFLLSLLACLQTSSHACFVTEFLPGGDLMAQIHEDVFPEPQACFYLACVVLGLQFLHEKRIIYRDLKLDNLLLDAQGFLKIADFGLCKEGIGFGDRTSTFCGTPEFLAPEVLTQEAYTRAVDWWGLGVLLYEMLVGECPFPGDTEEEVFECIVSADVPCPHFLSVQGLELIQKLLQKSPEKRLGAGERDAEEIKVQPFFRTTNWQALLARTVQPPFVPTLCGPADLRYFEGEFTSLPPTLTPPVSQSSLTARQQAAFRDFDFVSEQFLES
chain 2: MNHLNVLAKALYDNVAESPDELSFRKGDIMTVLEQDTQGLDGWWLCSLHGRQGIVPGNRLKILVGMYDKKPAGPGPGPPATPAQPQPGLHAPAPPASQYTPMLPNTYQPQPDSVYLVPTPSKAQQGLYQVPGPSPQFQSPPAKQTSTFSKQTPHHPFPSPATDLYQVPPGPGGPAQDIYQVPPSAGMGHDIYQVPPSMDTRSWEGTKPPAKVVVPTRVGQGYVYEAAQPEQDEYDIPRHLLAPGPQDIYDVPPVRGLLPSQYGQEVYDTPPMAVKGPNGRDPLLEVYDVPPSVEKGLPPSNHHAVYDVPPSVSKDVPDGPLLREETYDVPPAFAKAKPFDPARTPLVLAAPPPDSPPAEDVYDVPPPAPDLYDVPPGLRRPGPGTLYDVPRERVLPPEVADGGVVDSGVYAVPPPAEREAPAEGKRLSASSTGSTRSSQSASSLEVAGPGREPLELEVAVEALARLQQGVSATVAHLLDLAGSAGATGSWRSPSEPQEPLVQDLQAAVAAVQSAVHELLEFARSAVGNAAHTSDRALHAKLSRQLQKMEDVHQTLVAHGQALDAGRGGSGATLEDLDRLVACSRAVPEDAKQLASFLHGNASLLFRRTKATAPGPEGGGTLHPNPTDKTSSIQSRPLPSPPKFTSQDSPDGQYENSEGGWMEDYDYVHLQGKEEFEKTQKELLEKGSITRQGKSQLELQQLKQFERLEQEVSRPIDHDLANWTPAQPLAPGRTGGLGPSDRQLLLFYLEQCEANLTTLTNAVDAFFTAVATNQPPKIFVAHSKFVILSAHKLVFIGDTLSRQAKAADVRSQVTHYSNLLCDLLRGIVATTKAAALQYPSPSAAQDMVERVKELGHSTQQFRRVLGQLAAA

Data on 2 variants can be found in PMC6360386 (2018).

In the test the parent is B1. In words: co-immunoprecipitation (IP anti-Flag sepharose, IB anti-p130Cas); MDA-MB-231 cells, transient transfection; parent: 1.
As for chain 1 K577E, the ratio to parent was 0.8.
Then chain 1 P501A, chain 1 K503S, chain 1 P504A, with 0.2.
